In article PMC9062740 one finds ratio to parent data, which are given here for 1 substance.

In the experiment the target is taxol-stabilized microtubules polymerized from porcine brain tubulin (UniProt P02550). The experiment is described as follows: MT-binding assay (cosedimentation). Particulars: 5 μM CG2 mutant, […] taxol–MTs; parent: est. 1.0; read off a plot.
Chain of taxol-stabilized microtubules polymerized from porcine brain tubulin (P02550 whole entry, chain 1 of 2): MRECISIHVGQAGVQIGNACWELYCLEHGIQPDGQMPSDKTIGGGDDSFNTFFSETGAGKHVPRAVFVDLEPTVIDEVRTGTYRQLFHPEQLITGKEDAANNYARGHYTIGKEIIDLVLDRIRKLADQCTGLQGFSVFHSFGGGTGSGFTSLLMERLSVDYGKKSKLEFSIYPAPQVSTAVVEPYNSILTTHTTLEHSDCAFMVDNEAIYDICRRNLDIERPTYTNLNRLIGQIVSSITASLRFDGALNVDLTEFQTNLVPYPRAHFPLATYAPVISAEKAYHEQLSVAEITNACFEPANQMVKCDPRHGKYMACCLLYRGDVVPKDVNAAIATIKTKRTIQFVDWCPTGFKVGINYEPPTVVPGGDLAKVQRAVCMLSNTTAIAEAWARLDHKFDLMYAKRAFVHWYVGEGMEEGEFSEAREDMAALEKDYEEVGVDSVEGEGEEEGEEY
Chain of taxol-stabilized microtubules polymerized from porcine brain tubulin (chain, as listed by the source, chain 2 of 2): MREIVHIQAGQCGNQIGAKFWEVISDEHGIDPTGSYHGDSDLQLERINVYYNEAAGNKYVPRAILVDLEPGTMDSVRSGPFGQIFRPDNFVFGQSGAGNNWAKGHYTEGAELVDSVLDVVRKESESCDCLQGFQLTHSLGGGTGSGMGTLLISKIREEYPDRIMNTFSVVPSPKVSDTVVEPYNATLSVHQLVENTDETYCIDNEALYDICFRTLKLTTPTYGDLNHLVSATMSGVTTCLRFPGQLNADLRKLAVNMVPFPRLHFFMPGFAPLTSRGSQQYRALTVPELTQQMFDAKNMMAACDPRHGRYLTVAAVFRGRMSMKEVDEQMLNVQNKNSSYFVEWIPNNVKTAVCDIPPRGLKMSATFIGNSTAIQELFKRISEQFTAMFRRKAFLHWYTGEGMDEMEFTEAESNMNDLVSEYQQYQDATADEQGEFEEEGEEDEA

Chain of CLIP-170 CG2 fragment (206-288), P30622 H276A (P30622 206-288 H276A): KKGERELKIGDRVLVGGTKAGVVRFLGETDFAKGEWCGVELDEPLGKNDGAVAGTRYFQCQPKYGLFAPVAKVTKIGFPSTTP

As for “CLIP-170 CG2 fragment (206-288), P30622 H276A”, the ratio to parent stood at 0.91.
